Source: the supplement of paper PMC10126150
± gives the standard deviation of the averaged measurements.

tested on: ATP; assay: switch fluorescence ratio, 500 uM ATP over buffer (Cy3 cluster intensity, sum of 5 cycles each) (fold (ratio)); higher = stronger signal-on switching upon ATP binding; sequences stand for … in TCGTCGGCAGCGTCAGATGTGTATAAGAGACAGTTTTTTTTTTTTTTTTTTTTTTTTT…TC; details: aptamer strand: ATP DNA aptamer (quencher-CACCTGGGGGAGTATTGCGGAGGAAGG + anchor), 100 nM annealed; ATP concentration: 500 uM
Method in brief: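 For every switch-domain sequence, the fluorescence ratio is the mean of per-cluster values, each being summed target-cycle Cy3 intensity over summed buffer-cycle Cy3 intensity. Clusters outside 100-1000 RFU were excluded. On a modified Illumina MiSeq flow-cell, the Cy3-labelled switching-strand clusters were annealed to 100 nM quencher-labelled ATP aptamer, imaged in selection buffer and then after 15 min with 500 uM ATP at 22 °C. Five such cycles were run, with NaOH stripping and re-annealing between them.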
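Also: ATP exposure 15 min at 22 °C before imaging.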

Row | Sequence | switch fluorescence ratio
1 | AGAATTAAGG | 1.01 ± 0.045
2 | AGAATTACTT | 1.001 ± 0.0092
3 | AGAATTAGAG | 0.969 ± 0.054
4 | AGAATTCCCT | 1.011 ± 0.01
5 | AGAATTCTAG | 1.01 ± 0.022
6 | AGAATTGGCA | 1 ± 0.037
7 | AGAATTTAAA | 0.992 ± 0.032
8 | AGACACTGAC | 1.45 ± 0.028
9 | AGACATAGAG | 1 ± 0.011
10 | AGACCCTTTT | 0.994 ± 0.037
11 | AGACCGAGAC | 1.18 ± 0.079
12 | AGACCTGGCC | 1.14 ± 0.011
13 | AGACGAAGT | 1 ± 0.019
14 | AGACGAGAAT | 1.09 ± 0.14
15 | AGACGATTAG | 0.977 ± 0.03
16 | AGACGGACGT | 1.05 ± 0.013
17 | AGACGGGTAG | 0.968 ± 0.032
18 | AGACGTAGTA | 1.03 ± 0.014
19 | AGACGTAGTG | 0.99 ± 0.029
20 | AGACGTCACT | 1.77 ± 0.12
21 | AGACTCAATG | 0.988 ± 0.07
22 | AGACTCCAAG | 1 ± 0.059
23 | AGACTGACAA | 1.1 ± 0.021
24 | AGACTGGTTG | 0.993 ± 0.035
25 | AGACTTTAGT | 1.01 ± 0.036

Row | Sequence | switch fluorescence ratio
26 | AGACTTTGAG | 1.03 ± 0.061
27 | AGAGAAGATG | 1.01 ± 0.034
28 | AGAGAAGGTC | 1.017 ± 0.0086
29 | AGAGAAGTGA | 0.986 ± 0.032
30 | AGAGAATGGT | 0.999 ± 0.027
31 | AGAGACACAT | 1 ± 0.0086
32 | AGAGACATGC | 0.923 ± 0.085
33 | AGAGACCCCG | 0.971 ± 0.039
34 | AGAGACGAAT | 1.013 ± 0.0085
35 | AGAGAGGAGT | 0.982 ± 0.021
36 | AGAGAGGGCG | 0.888 ± 0.14
37 | AGAGAGGGGC | 0.971 ± 0.014
38 | AGAGAGGGGT | 1.01 ± 0.047
39 | AGAGAGGGTG | 1.06 ± 0.048
40 | AGAGATGTAG | 0.966 ± 0.023
41 | AGAGATTCAC | 1.03 ± 0.013
42 | AGAGCGTTGT | 0.977 ± 0.023
43 | AGAGCTGGGA | 0.965 ± 0.015
44 | AGAGGAGGTG | 1.02 ± 0.03
45 | AGAGGAGTGC | 0.958 ± 0.056
46 | AGAGGCCAAC | 1.002 ± 0.0062
47 | AGAGGCCGGG | 1 ± 0.032
48 | AGAGGCCGTT | 0.9965 ± 0.0074
49 | AGAGGCGGGA | 0.956 ± 0.11
50 | AGAGGCTTAG | 1 ± 0.066

Row | Sequence | switch fluorescence ratio
51 | AGAGGGAAAC | 1.14 ± 0.3
52 | AGAGGGAGAT | 0.9876 ± 0.0098
53 | AGAGGGATTA | 0.999 ± 0.037
54 | AGAGGGGGTT | 0.971 ± 0.035
55 | AGAGGGGTAA | 0.998 ± 0.029
56 | AGAGGGGTAT | 1.04 ± 0.017
57 | AGAGGGTCCT | 1.03 ± 0.034
58 | AGAGGGTGTG | 0.992 ± 0.034
59 | AGAGGTATCG | 0.995 ± 0.019
60 | AGAGGTTGTT | 0.995 ± 0.038
61 | AGAGTCAATG | 1.04 ± 0.023
62 | AGAGTCCCTT | 1 ± 0.036
63 | AGAGTCTGGT | 0.965 ± 0.03
64 | AGAGTCTTTT | 0.9934 ± 0.0016
65 | AGAGTGGTTA | 0.9864 ± 0.0033
66 | AGAGTTGGCT | 0.992 ± 0.021
67 | AGAGTTGGTG | 0.997 ± 0.031
68 | AGAGTTGTGG | 0.982 ± 0.024
69 | AGAGTTTGTG | 0.978 ± 0.015
70 | AGAGTTTTTA | 1.01 ± 0.035
71 | AGATAAAATT | 0.98 ± 0.056
72 | AGATAATTAG | 1 ± 0.023
73 | AGATACAGTT | 1.02 ± 0.034
74 | AGATACATAT | 1.05 ± 0.0056
75 | AGATAGAAGG | 0.995 ± 0.012

Row | Sequence | switch fluorescence ratio
76 | AGATAGATCT | 0.9871 ± 0.0059
77 | AGATATCAAC | 1.04 ± 0.021
78 | AGATATCATT | 0.9848 ± 0.0086
79 | AGATATCCGC | 1.15 ± 0.05
80 | AGATATGAGA | 1.031 ± 0.0075
81 | AGATATGTTT | 0.986 ± 0.025
82 | AGATATTTTT | 0.975 ± 0.023
83 | AGATCAAGGT | 1.02 ± 0.013
84 | AGATCATGAG | 0.9708 ± 0.0079
85 | AGATCGAAGG | 1.03 ± 0.018
86 | AGATCGACGG | 1.014 ± 0.0095
87 | AGATCGGGTG | 1 ± 0.021
88 | AGATGGCCGG | 1 ± 0.065
89 | AGATGGGGCC | 1 ± 0.027
90 | AGATGGGGTA | 0.9705 ± 0.0077
91 | AGATGGGGTG | 1.23 ± 0.35
92 | AGATGGGGTT | 1.01 ± 0.028
93 | AGATGGTCAC | 1.032 ± 0.0086
94 | AGATGTGCCT | 1.01 ± 0.045
95 | AGATGTTAGC | 0.983 ± 0.047
96 | AGATGTTAGG | 0.981 ± 0.029
97 | AGATTGAGAA | 0.998 ± 0.028
98 | AGATTGATGG | 0.9848 ± 0.0026
99 | AGATTGGAGA | 1 ± 0.039
100 | AGATTGGGGC | 0.974 ± 0.013

Row | Sequence | switch fluorescence ratio
101 | AGATTGGTTG | 0.985 ± 0.012
102 | AGATTTATGT | 1.01 ± 0.047
103 | AGATTTTTCA | 1 ± 0.021
104 | AGATTTTTCG | 1.04 ± 0.024
105 | AGATTTTTTT | 0.996 ± 0.031
106 | AGCAAAAGGA | 1.16 ± 0.22
107 | AGCAACCGGT | 1.1 ± 0.016
108 | AGCAATATGG | 2.49 ± 0.051
109 | AGCACATGTC | 1.07 ± 0.027
110 | AGCAGAAATG | 0.9979 ± 0.0074
111 | AGCAGAGTGC | 1.02 ± 0.055
112 | AGCAGATAGG | 1.03 ± 0.079
113 | AGCAGGCCGG | 0.976 ± 0.025
114 | AGCAGGGAGC | 1.01 ± 0.021
115 | AGCAGTGTCT | 1.04 ± 0.02
116 | AGCATAGAGG | 1.03 ± 0.03
117 | AGCATATATG | 1.02 ± 0.015
118 | AGCATGAGAT | 1.03 ± 0.039
119 | AGCATTGAGG | 0.984 ± 0.0067
120 | AGCATTGTTT | 0.985 ± 0.023
121 | AGCCAGAGGG | 1.005 ± 0.0055
122 | AGCCATAAGG | 1.012 ± 0.0061
123 | AGCCATAGTC | 1.113 ± 0.0056
124 | AGCCATTAGC | 0.992 ± 0.048
125 | AGCCCGCCGG | 1.03 ± 0.031

Row | Sequence | switch fluorescence ratio
126 | AGCCGGACGC | 1.066 ± 0.0075
127 | AGCCGGCCTG | 1.02 ± 0.017
128 | AGCCGTTTTT | 0.973 ± 0.038
129 | AGCCTAATGG | 0.995 ± 0.041
130 | AGCCTAGTTC | 1.01 ± 0.026
131 | AGCCTATACT | 1.6 ± 0.16
132 | AGCCTCGGTT | 1.0014 ± 0.00098
133 | AGCCTTTTTC | 1.08 ± 0.091
134 | AGCGAAAAGG | 1 ± 0.041
135 | AGCGACGGAC | 1.42 ± 0.1
136 | AGCGACTGTA | 1.15 ± 0.22
137 | AGCGAGACGT | 1.12 ± 0.034
138 | AGCGAGGGGC | 1.02 ± 0.035
139 | AGCGATTGCC | 1.01 ± 0.016
140 | AGCGCCAACA | 1.02 ± 0.017
141 | AGCGCCGCGT | 1.09 ± 0.13
142 | AGCGCCTCAG | 1.003 ± 0.0081
143 | AGCGCGGCGC | 1.01 ± 0.051
144 | AGCGCTATTT | 1.04 ± 0.065
145 | AGCGGAGTGA | 1.007 ± 0.0093
146 | AGCGGGGCGT | 1.01 ± 0.014
147 | AGCGGGGTCG | 1 ± 0.011
148 | AGCGGTGGTT | 1.02 ± 0.012
149 | AGCGGTTCAC | 1.018 ± 0.0029
150 | AGCGGTTGGG | 0.9966 ± 0.0071

Row | Sequence | switch fluorescence ratio
151 | AGCGGTTTCG | 0.986 ± 0.023
152 | AGCGTACTTT | 1.12 ± 0.018
153 | AGCGTCAACG | 0.954 ± 0.015
154 | AGCGTCTGGG | 1.0291 ± 0.00058
155 | AGCGTGTGCG | 0.989 ± 0.055
156 | AGCTAGAGCT | 0.963 ± 0.033
157 | AGCTAGGAGC | 0.972 ± 0.021
158 | AGCTAGGCGC | 1.01 ± 0.027
159 | AGCTAGTTTA | 0.998 ± 0.0036
160 | AGCTATAAGG | 0.982 ± 0.021
161 | AGCTATCACG | 1 ± 0.032
162 | AGCTCTAAAT | 1.04 ± 0.068
163 | AGCTGACCGA | 1.083 ± 0.0037
164 | AGCTGAGGAG | 1.0063 ± 7.3e-05
165 | AGCTGATCTA | 0.986 ± 0.022
166 | AGCTGCCCCA | 1.18 ± 0.13
167 | AGCTGGAGGT | 0.992 ± 0.026
168 | AGCTGGGCCT | 1.04 ± 0.011
169 | AGCTGGGGTT | 0.9962 ± 0.0062
170 | AGCTGTACGG | 1.029 ± 0.0084
171 | AGCTGTTTAC | 1.09 ± 0.016
172 | AGCTTAGGGC | 0.989 ± 0.03
173 | AGCTTAGGGG | 1.07 ± 0.11
174 | AGCTTCGTCT | 1.04 ± 0.065
175 | AGCTTCTAAC | 1.025 ± 0.0036

Row | Sequence | switch fluorescence ratio
176 | AGCTTGATTT | 1.01 ± 0.039
177 | AGCTTGGACC | 1.009 ± 0.0084
178 | AGCTTGGGGG | 0.995 ± 0.027
179 | AGCTTTTTGT | 0.947 ± 0.023
180 | AGGAAAAGGG | 1.14 ± 0.1
181 | AGGAAAATGT | 0.984 ± 0.041
182 | AGGAAAGTCT | 1.02 ± 0.066
183 | AGGAAATGTT | 1 ± 0.051
184 | AGGAAATTTT | 1.01 ± 0.025
185 | AGGAACGTAC | 1.61 ± 0.057
186 | AGGAACTTTT | 1.42 ± 0.56
187 | AGGAAGAGAG | 1.016 ± 0.0083
188 | AGGAAGATCC | 1.002 ± 0.0083
189 | AGGAAGGGGG | 0.992 ± 0.034
190 | AGGAAGTGCC | 1.032 ± 0.0062
191 | AGGAAGTGGT | 0.9671 ± 0.006
192 | AGGAAGTGTG | 0.9869 ± 0.0079
193 | AGGAATAAGT | 1.11 ± 0.16
194 | AGGAATCTAG | 0.967 ± 0.03
195 | AGGAATGGGA | 1.02 ± 0.02
196 | AGGAATGGTT | 0.992 ± 0.041
197 | AGGAATTTTC | 0.994 ± 0.032
198 | AGGACATTGG | 0.966 ± 0.023
199 | AGGACGAGCA | 1.12 ± 0.015
200 | AGGACGGGGA | 0.99 ± 0.019
